Results on one substance are retold here after patent publication US20240002818.

The test system of this data set is T1, Myotis lucifugus helper (Myotis lucifugus).
T1 sequence: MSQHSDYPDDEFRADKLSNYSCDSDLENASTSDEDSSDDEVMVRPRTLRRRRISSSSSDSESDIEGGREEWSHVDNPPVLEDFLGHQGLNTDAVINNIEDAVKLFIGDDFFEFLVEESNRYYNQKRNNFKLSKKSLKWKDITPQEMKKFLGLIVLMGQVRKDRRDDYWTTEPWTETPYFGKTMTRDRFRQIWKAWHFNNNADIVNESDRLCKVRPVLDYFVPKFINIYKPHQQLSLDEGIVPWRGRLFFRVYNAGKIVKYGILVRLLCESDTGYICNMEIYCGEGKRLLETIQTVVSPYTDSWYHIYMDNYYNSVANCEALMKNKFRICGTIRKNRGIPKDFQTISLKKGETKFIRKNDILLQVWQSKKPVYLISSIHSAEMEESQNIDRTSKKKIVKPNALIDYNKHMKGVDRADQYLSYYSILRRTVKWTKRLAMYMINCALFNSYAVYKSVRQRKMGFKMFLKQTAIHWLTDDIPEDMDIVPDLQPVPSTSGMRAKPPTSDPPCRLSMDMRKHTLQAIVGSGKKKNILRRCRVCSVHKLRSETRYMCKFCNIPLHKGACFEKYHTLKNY
Kind of data set: cell_activity. The settings on record: HEK293, GFP+ cells day 21 relative to day 2; indirect evidence of end recognition.

“Myotis lucifugus donor ends (left/right)” registered an activity (% integration efficiency) of 3.5.
